According to patent US20210147546A1 (VRIJE UNIVERSITEIT BRUSSEL, published 2021):

Assays:
[1] = target: T1, recombinant Fc-tagged human PD-L1 (R&D Systems, 156-B7) (human, UniProt Q9NZQ7 19-239); assay: SPR competition: sdAb mixed with 25 nM PD-L1-Fc, run over immobilized PD-1-Fc (FIG. 5A)
T1 construct: Bought protein; Also the immunogen for the alpacas; also called PD-L1-Fc; Fc-PD-L1; not shown: Fc tag
Procedure: (§1) All measurements were performed on a Biacore T200 device (GE Healtcare) at 25° C. and using Hepes-buffered saline (0.01M HEPES, pH 7.4; 0.15M NaCl, 3 mM EDTA, 0.005% Tween20) as running buffer. All recombinant proteins were dissolved to 10 μg/mL in 10 mM Na-acetate (pH 5.0) for immobilization on a CM5 sensor chip using linkage chemistry with 1-(3-(dimethylamino)propyl)-3-ethylcarbodiimide (EDC) and N-hydroxy-succinimide ([…]). Unreacted EDC-NHS linkers were blocked with 1M ethanolamine-HCl. For all measurements, SPR signals in the flow cell with immobilized protein were subtracted with those in a flow cell that underwent the same manipulations but where recombinant protein was omitted, to obtain specific binding signals (response units, RU). Affinity for human PD-L1 of the purified sdAbs was evaluated on immobilized PD-L1 protein.
(§2) To evaluate the sdAb's IC₅₀, the sdAb concentration at which the relative response of the interaction between PD-1 and PD-L1 is inhibited by half, Fc-PD-1 protein was immobilized on a CM5 chip. […] The maximum relative response values were plotted in function of competing sdAb concentration and analyzed with a “Log inhibitor versus response (variable lope)” model in Prism to calculate IC₅₀ values.

[2] = target: T1, recombinant Fc-tagged human PD-L1 (R&D …); assay: SPR competition: sdAb K2 (0,78 to 1000 nM) mixed with 25 nM PD-L1-Fc and run over immobilized PD-1 Fc. The binder is named by legend paragraph 20, not on the sheet. The text gives 9.5 nM for this figure.
Procedure: as §1, §2

[3] = target: T1, recombinant Fc-tagged human PD-L1 (R&D …); assay: SPR competition: sdAb mixed with soluble recombinant human PD-L1, run over immobilized human PD-1 (FIG. 16B)
Description: as §2

[4] = target: T2, human PD-L1 expressed on cells (lentivirally transduced HEK293T, MCF7 and 624-MEL cells; endogenous on moDCs) (human, UniProt Q9NZQ7 19-290); assay: flow cytometry, fold increase in mean fluorescence intensity of binding to human PD-L1 compared to control sdAb
T2 construct: whole, on cells; also called PD-L1+ MCF7

[5] = target: T3, recombinant His-tagged human PD-L1 protein (SINO Biologicals, 10084-H08H) (human, UniProt Q9NZQ7 19-238); assay: SPR (Biacore T200), purified sdAb over immobilized recombinant human PD-L1
T3 construct: Bought protein; also called immobilized recombinant PD-L1 protein; not shown: His-tag
Procedure: as §1

T1 sequence (Q9NZQ7 19-239 limits assumed): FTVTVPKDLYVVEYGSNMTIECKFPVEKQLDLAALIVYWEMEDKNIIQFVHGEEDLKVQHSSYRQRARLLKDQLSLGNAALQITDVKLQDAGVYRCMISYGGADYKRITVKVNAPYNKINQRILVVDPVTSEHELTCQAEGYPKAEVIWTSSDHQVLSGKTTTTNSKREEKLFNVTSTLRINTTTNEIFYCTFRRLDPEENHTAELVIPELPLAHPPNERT
T3 sequence (Q9NZQ7 19-238 limits assumed): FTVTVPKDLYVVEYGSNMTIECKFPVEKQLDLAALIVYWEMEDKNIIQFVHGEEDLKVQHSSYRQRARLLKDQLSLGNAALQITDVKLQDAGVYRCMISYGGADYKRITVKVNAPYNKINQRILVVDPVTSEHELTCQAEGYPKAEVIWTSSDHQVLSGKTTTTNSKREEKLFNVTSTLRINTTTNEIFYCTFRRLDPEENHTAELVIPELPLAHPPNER
T2 sequence (Q9NZQ7 19-290): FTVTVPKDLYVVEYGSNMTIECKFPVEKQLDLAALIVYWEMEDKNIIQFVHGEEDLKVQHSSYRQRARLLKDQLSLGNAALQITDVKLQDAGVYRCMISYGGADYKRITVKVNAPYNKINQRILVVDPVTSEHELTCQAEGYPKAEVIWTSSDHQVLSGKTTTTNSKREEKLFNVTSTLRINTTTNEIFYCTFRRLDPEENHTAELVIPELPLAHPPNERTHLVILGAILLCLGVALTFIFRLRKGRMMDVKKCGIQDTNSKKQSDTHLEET

| Binder | IC50 [1] [nM] | IC50 [2] [nM] | IC50 [3] [nM] | MFI PD-L1 binding (fold increase) [4] [fold] | Kd [5] [nM] |
| --- | --- | --- | --- | --- | --- |
| sdAb K2 (human PD-L1-specific single domain antibody, C-terminal HIS-tag) (VHH, also called anti-hPD-L1 sdAb K2; K2 (huPDL1 nanobody)) VHH: QVQLQESGGGLVQPGGSLRLSCAASGFTFSSFAMSWVRQAPGKGLEWVSDIDTTGRTTDYADSVKGRFTISRDNAENTLYLQMNDLKPEDTAVYYCANVPKELVLSFGSWGPGTQVTVSS | 9.5 | 10 | 8.5 | 22.8 | 5.2 |
| sdAb K3 (human PD-L1-specific single domain antibody, C-terminal HIS-tag) (VHH, also called K3 (huPDL1 nanobody)) VHH: QVQLQESGGGSVQPGGSLRLSCEASGFTFSSYAMSWVRQAPGEGLEWVSDINTGGDNTDYAGSVKGRFTISRDNAKNTLYLQMDSLKPEDTAKYYCANVPKELVHSFNSWGQGTQVTVSS |  |  |  | 23.4 | 3.5 |
| sdAb K4 (human PD-L1-specific single domain antibody, C-terminal HIS-tag) (VHH) VHH: QVQLQESGGGLVQPGGSLRLSCAASGFTFSSFAMSWVRQVPGRTLEWVSDINTGGDSTDYANSVKGRFTISRDNAKNTLYLQMNSLKPDDTAVYYCANVPKELVFSFASWGRGTQVTVSS |  |  |  | 6.9 | 4.5 |
